Molecular target: the molecule itself
Experiment: aggregation of the purified protein in solution (visible precipitation; aggregates examined by Congo red, CD, ATR-FTIR, TEM, WAXS); protein alone at 20 µM in 1x PBS pH 7.4, 37°C, 3 h, kept at 4°C (legend of Figure 2C: 50 µM)

B1: Rubber Elongation Factor (REF), recombinant 6His-REF (natural protein, Hevea brasiliensis, UniProt P15252 1-138, looked up)
chain: MAEDEDNQQGQGEGLKYLGFVQDAATYAVTTFSNVYLFAKDKSGPLQPGVDIIEGPVKNVAVPLYNRFSYIPNGALKFVDSTVVASVTIIDRSLPPIVKDASIQVVSAIRAAPEAARSLASSLPGQTKILAKVFYGEN
notes: gene synthesised after codon optimisation from GenBank X56535; No removal of the tag is described, and the same preparation is detected by anti-His antibody in the lipid dot blots; also called Hevb1; HbREF; source: E. coli BL21 (DE3) pLysS Gold, inclusion bodies, purified (Ni-NTA in 8 M urea, dialysed against buffer A); not shown: His6, N-terminal, kept
B1: binds.

Source: paper PMC3485013, “Rubber Elongation Factor (REF), a Major Allergen Component in Hevea brasiliensis Latex Has Amyloid Properties” (PLoS ONE, 2012)
